Article doi:10.1101/2023.05.12.540488 (bioRxiv, 2023)
Where two headings read alike, the source gives them in different places.

Experiments:
Experiment in all cases: crystal structure
[1] = biological target: the molecule itself
[2] = biological target: the molecule itself; remark: listed apart in the source
[3] = biological target: the molecule itself; remark: listed apart in the source
[4] = biological target: the molecule itself; remark: listed apart in the source

B1: S-adenosyl-L-homocysteine hydrolase from Mus musculus (enzyme)
chain: MSDKLPYKVADIGLAAWGRKALDIAENEMPGLMRMREMYSASKPLKGARIAGCLHMTVETAVLIETLVALGAEVRWSSCNIFSTQDHAAAAIAKAGIPVFAWKGETDEEYLWCIEQTLHFKDGPLNMILDDGGDLTNLIHTKYPQLLSGIRGISEETTTGVHNLYKMMSNGILKVPAINVNDSVTKSKFDNLYGCRESLIDGIKRATDVMIAGKVAVVAGYGDVGKGCAQALRGFGARVIITEIDPINALQAAMEGYEVTTMDEACKEGNIFVTTTGCVDIILGRHFEQMKDDAIVCNIGHFDVEIDVKWLNENAVEKVNIKPQVDRYWLKNGRRIILLAEGRLVNLGCAMGHPSFVMSNSFTNQVMAQIELWTHPDKYPVGVHFLPKKLDEAVAEAHLGKLNVKLTKLTEKQAQYLGMPINGPFKPDHYRY
[1]
  binding result: binds

B2: S-adenosyl-L-homocysteine hydrolase from Pyrococcus furiosus (enzyme)
chain: MDCGKDYCVKDLSLAEEGWKKIDWVSRFMPVLQYIKREFEEKKPFKGVRIAATLHLEMKTAFLLLTLKAGGAEVSAAASNPLSTQDDVVAALAKAGVKVYAIRGESREQYYEFMHKALDIRPNIIIDDGADMISLVHKERQEMLDEIWGGSEETTTGVIRLRAMEKAGILKFPVIAVNDSYMKYLFDNRYGTGQSTWDGIMRATNLLIAGKNVVVVGYGWCGRGIAMRARGLGATVIVVEVDPIKALEARMDGFLVMDMKEAAKIGDIFVTATGNIKCIRREHFELMKDGAIMANAGHFDVEIWKPDLEKLAVEINNPRPNVTEYKLKDGRRLYLLADGRLVNLVAADGHPAEIMDMSFALQAKAAEYIKDNHERLEPKVYILPREIDEMVARIKLESMGIKIEELTEEQKKYLESWEHGT
[2]
  stoichiometry N: 4

B3: S-adenosyl-L-homocysteine hydrolase from Methanococcus maripaludis (enzyme)
chain: MSNVKDMSLAPSGHLKMEWAKRHMPVLCRIAEEFKNDKPFEGLTIGMALHLEAKTAILAETLLEGGAKIVITGCNPLSTQDDVAAACVEKGMEVYAWRGETNEEYYENLNKVLDSNPDIIIDDGADLIFLIHTERTELIGKIMGGCEETTTGIIRLKSMAEEGALKFPVVNVNDAYTKHLFDNRYGTGQSAMDGIIRTTNLLIAGKNVVVGGYGWCGRGVASRAAGHGANVIITEVNPIRALEAKMDGFTVLKMEEAAKIGDIFVTTTGCKDILRMEHFLLMKDGAVLSNAGHFDNEINKNDLKELSKSVKEARFNIEEYDLGNKKIYLLGEGRLVNLACADGHPCEVMDMSFANQALSAKFIKENKGKLENEVYEIPYEQDFKIALLKLHSMGADIDELSPEQRKYLSDWKEGT
[3]
  stoichiometry N: 4

B4: S-adenosyl-L-homocysteine hydrolase from Sulfolobus acidocaldarius (enzyme)
chain: MDYRVKDLSLAEQGRKQIEWAELHMPALMEIRKRFNAEKPLDGIRIGAVLHVTKETAVLVETLKAGGAEIALAGSNPLSTQDDVAAGLAKNGIHVYAWRGETEKDYYDNIREILKYEPHVIMDDGGDLHAYVHENNLTSKIVGGTEETTTGVIRLKAMEEEKVLKYPVIAVNNAFTKYLFDNRIGTGQSTIDGILRATNILIAGKVAVVIGYGWVGRGIASRFKGMGARVIVVESSPFRALEALMDGFDVMTMNRASEIGDIFVTATGNLNVVSRDHILRMKDGAVLANSGHFNVEIDVKGLKEISVETREVRQNLEEYKLRNGKRIYLLADGRLVNLVAAEGHPSEVMDLSFCNQALSVEHLIKNKGKLENKVYNVPIEIDEQVARLKLKALGIEIEELTIEQKEYIKQWKYGT
[4]
  stoichiometry N: 4
